B1: 2B.1.74 (antibody, human IgG1, kappa, V domains shown)
VH: EVQLVESGGGLVQPGGSLRLSCAASGFTFTSTGISWVRQAPGKGLEWVGRYHPFRGSTNYADSVKGRFTISADTSKNTAYLQMNSLRAEDTAVYYCARTYGIYDLYVDYTEYVMDYWGQGTLVTVSS
VL: DIQMTQSPSSLSASVGDRVTITCRASQDVDTSLAWYKQKPGKAPKLLIYSASFLYSGVPSRFSGSGSGTDFTLTISSLQPEDFATYYCQQSTGHPQTFGQGTKVEIKR
B2: 2B.1.81 (antibody, human IgG1, kappa, V domains shown)
VH: EVQLVESGGGLVQPGGSLRLSCAASGFTFTSTGISWVRQAPGKGLEWVGRVNNFYGSTNYADSVKGRFTISADTSKNTAYLQMNSLRAEDTAVYYCARTYGIYDLYVDYTEYVMDYWGQGTLVTVSS
VL: DIQMTQSPSSLSASVGDRVTITCRASQDVDTSLAWYKQKPGKAPKLLIYSASFLYSGVPSRFSGSGSGTDFTLTISSLQPEDFATYYCQQSTGHPQTFGQGTKVEIKR
B3: 2B.1.25 (antibody, human IgG1, kappa, V domains shown)
VH: EVQLVESGGGLVQPGGSLRLSCAASGFTFTSTGISWVRQAPGKGLEWVGRWHPWMGSTNYADSVKGRFTISADTSKNTAYLQMNSLRAEDTAVYYCARTYGIYDLYVDYTEYVMDYWGQGTLVTVSS
VL: DIQMTQSPSSLSASVGDRVTITCRASQDVDTSLAWYKQKPGKAPKLLIYSASFLYSGVPSRFSGSGSGTDFTLTISSLQPEDFATYYCQQSTGHPQTFGQGTKVEIKR
B4: 2B.1.52 (antibody, human IgG1, kappa, V domains shown)
VH: EVQLVESGGGLVQPGGSLRLSCAASGFTFTSTGISWVRQAPGKGLEWVGRFSLGDGSTNYADSVKGRFTISADTSKNTAYLQMNSLRAEDTAVYYCARTYGIYDLYVDYTEYVMDYWGQGTLVTVSS
VL: DIQMTQSPSSLSASVGDRVTITCRASQDVDTSLAWYKQKPGKAPKLLIYSASFLYSGVPSRFSGSGSGTDFTLTISSLQPEDFATYYCQQSTGHPQTFGQGTKVEIKR
B5: 2B.1.38 (antibody, human IgG1, kappa, V domains shown)
VH: EVQLVESGGGLVQPGGSLRLSCAASGFTFTSTGISWVRQAPGKGLEWVGRFWAYDGSTNYADSVKGRFTISADTSKNTAYLQMNSLRAEDTAVYYCARTYGIYDLYVDYTEYVMDYWGQGTLVTVSS
VL: DIQMTQSPSSLSASVGDRVTITCRASQDVDTSLAWYKQKPGKAPKLLIYSASFLYSGVPSRFSGSGSGTDFTLTISSLQPEDFATYYCQQSTGHPQTFGQGTKVEIKR
B6: 2B.1.72 (antibody, human IgG1, kappa, V domains shown)
VH: EVQLVESGGGLVQPGGSLRLSCAASGFTFTSTGISWVRQAPGKGLEWVGRVHPFEGSTNYADSVKGRFTISADTSKNTAYLQMNSLRAEDTAVYYCARTYGIYDLYVDYTEYVMDYWGQGTLVTVSS
VL: DIQMTQSPSSLSASVGDRVTITCRASQDVDTSLAWYKQKPGKAPKLLIYSASFLYSGVPSRFSGSGSGTDFTLTISSLQPEDFATYYCQQSTGHPQTFGQGTKVEIKR
B7: 2B.1.82 (antibody, human IgG1, kappa, V domains shown)
VH: EVQLVESGGGLVQPGGSLRLSCAASGFTFTSTGISWVRQAPGKGLEWVGRINFFSGSTNYADSVKGRFTISADTSKNTAYLQMNSLRAEDTAVYYCARTYGIYDLYVDYTEYVMDYWGQGTLVTVSS
VL: DIQMTQSPSSLSASVGDRVTITCRASQDVDTSLAWYKQKPGKAPKLLIYSASFLYSGVPSRFSGSGSGTDFTLTISSLQPEDFATYYCQQSTGHPQTFGQGTKVEIKR
B8: 2B.1.55 (antibody, human IgG1, kappa, V domains shown)
VH: EVQLVESGGGLVQPGGSLRLSCAASGFTFTSTGISWVRQAPGKGLEWVGRVDVFWGSTNYADSVKGRFTISADTSKNTAYLQMNSLRAEDTAVYYCARTYGIYDLYVDYTEYVMDYWGQGTLVTVSS
VL: DIQMTQSPSSLSASVGDRVTITCRASQDVDTSLAWYKQKPGKAPKLLIYSASFLYSGVPSRFSGSGSGTDFTLTISSLQPEDFATYYCQQSTGHPQTFGQGTKVEIKR
B9: 2B.1.65 (antibody, human IgG1, kappa, V domains shown)
VH: EVQLVESGGGLVQPGGSLRLSCAASGFTFTSTGISWVRQAPGKGLEWVGRYNAYTGSTNYADSVKGRFTISADTSKNTAYLQMNSLRAEDTAVYYCARTYGIYDLYVDYTEYVMDYWGQGTLVTVSS
VL: DIQMTQSPSSLSASVGDRVTITCRASQDVDTSLAWYKQKPGKAPKLLIYSASFLYSGVPSRFSGSGSGTDFTLTISSLQPEDFATYYCQQSTGHPQTFGQGTKVEIKR
B10: 2B.1.71 (antibody, human IgG1, kappa, V domains shown)
VH: EVQLVESGGGLVQPGGSLRLSCAASGFTFTSTGISWVRQAPGKGLEWVGRVWMFDGSTNYADSVKGRFTISADTSKNTAYLQMNSLRAEDTAVYYCARTYGIYDLYVDYTEYVMDYWGQGTLVTVSS
VL: DIQMTQSPSSLSASVGDRVTITCRASQDVDTSLAWYKQKPGKAPKLLIYSASFLYSGVPSRFSGSGSGTDFTLTISSLQPEDFATYYCQQSTGHPQTFGQGTKVEIKR
B11: 2B.1.30 (antibody, human IgG1, kappa, V domains shown)
VH: EVQLVESGGGLVQPGGSLRLSCAASGFTFTSTGISWVRQAPGKGLEWVGRVSFFSGSTNYADSVKGRFTISADTSKNTAYLQMNSLRAEDTAVYYCARTYGIYDLYVDYTEYVMDYWGQGTLVTVSS
VL: DIQMTQSPSSLSASVGDRVTITCRASQDVDTSLAWYKQKPGKAPKLLIYSASFLYSGVPSRFSGSGSGTDFTLTISSLQPEDFATYYCQQSTGHPQTFGQGTKVEIKR
B12: 2B.1.35 (antibody, human IgG1, kappa, V domains shown)
VH: EVQLVESGGGLVQPGGSLRLSCAASGFTFTSTGISWVRQAPGKGLEWVGRWHPFRGSTNYADSVKGRFTISADTSKNTAYLQMNSLRAEDTAVYYCARTYGIYDLYVDYTEYVMDYWGQGTLVTVSS
VL: DIQMTQSPSSLSASVGDRVTITCRASQDVDTSLAWYKQKPGKAPKLLIYSASFLYSGVPSRFSGSGSGTDFTLTISSLQPEDFATYYCQQSTGHPQTFGQGTKVEIKR
B13: 2B.1.80 (antibody, human IgG1, kappa, V domains shown)
VH: EVQLVESGGGLVQPGGSLRLSCAASGFTFTSTGISWVRQAPGKGLEWVGRYWAFSGSTNYADSVKGRFTISADTSKNTAYLQMNSLRAEDTAVYYCARTYGIYDLYVDYTEYVMDYWGQGTLVTVSS
VL: DIQMTQSPSSLSASVGDRVTITCRASQDVDTSLAWYKQKPGKAPKLLIYSASFLYSGVPSRFSGSGSGTDFTLTISSLQPEDFATYYCQQSTGHPQTFGQGTKVEIKR
B14: 2B.1.28 (antibody, human IgG1, kappa, V domains shown)
VH: EVQLVESGGGLVQPGGSLRLSCAASGFTFTSTGISWVRQAPGKGLEWVGRFWAWSGSTNYADSVKGRFTISADTSKNTAYLQMNSLRAEDTAVYYCARTYGIYDLYVDYTEYVMDYWGQGTLVTVSS
VL: DIQMTQSPSSLSASVGDRVTITCRASQDVDTSLAWYKQKPGKAPKLLIYSASFLYSGVPSRFSGSGSGTDFTLTISSLQPEDFATYYCQQSTGHPQTFGQGTKVEIKR
B15: 2B.1.94 (antibody, human IgG1, kappa, V domains shown)
VH: EVQLVESGGGLVQPGGSLRLSCAASGFTFTSTGISWVRQAPGKGLEWVGRLVFFSGSTNYADSVKGRFTISADTSKNTAYLQMNSLRAEDTAVYYCARTYGIYDLYVDYTEYVMDYWGQGTLVTVSS
VL: DIQMTQSPSSLSASVGDRVTITCRASQDVDTSLAWYKQKPGKAPKLLIYSASFLYSGVPSRFSGSGSGTDFTLTISSLQPEDFATYYCQQSTGHPQTFGQGTKVEIKR
B16: 2B.1.33 (antibody, human IgG1, kappa, V domains shown)
VH: EVQLVESGGGLVQPGGSLRLSCAASGFTFTSTGISWVRQAPGKGLEWVGRYHPFHGSTNYADSVKGRFTISADTSKNTAYLQMNSLRAEDTAVYYCARTYGIYDLYVDYTEYVMDYWGQGTLVTVSS
VL: DIQMTQSPSSLSASVGDRVTITCRASQDVDTSLAWYKQKPGKAPKLLIYSASFLYSGVPSRFSGSGSGTDFTLTISSLQPEDFATYYCQQSTGHPQTFGQGTKVEIKR
B17: 2B.1.93 (antibody, human IgG1, kappa, V domains shown)
VH: EVQLVESGGGLVQPGGSLRLSCAASGFTFTSTGISWVRQAPGKGLEWVGRIDNYWGSTNYADSVKGRFTISADTSKNTAYLQMNSLRAEDTAVYYCARTYGIYDLYVDYTEYVMDYWGQGTLVTVSS
VL: DIQMTQSPSSLSASVGDRVTITCRASQDVDTSLAWYKQKPGKAPKLLIYSASFLYSGVPSRFSGSGSGTDFTLTISSLQPEDFATYYCQQSTGHPQTFGQGTKVEIKR
B18: 2B.1.78 (antibody, human IgG1, kappa, V domains shown)
VH: EVQLVESGGGLVQPGGSLRLSCAASGFTFTSTGISWVRQAPGKGLEWVGRLSFYSGSTNYADSVKGRFTISADTSKNTAYLQMNSLRAEDTAVYYCARTYGIYDLYVDYTEYVMDYWGQGTLVTVSS
VL: DIQMTQSPSSLSASVGDRVTITCRASQDVDTSLAWYKQKPGKAPKLLIYSASFLYSGVPSRFSGSGSGTDFTLTISSLQPEDFATYYCQQSTGHPQTFGQGTKVEIKR
B19: 2B.1.44 (antibody, human IgG1, kappa, V domains shown)
VH: EVQLVESGGGLVQPGGSLRLSCAASGFTFTSTGISWVRQAPGKGLEWVGRWWSWGGSTNYADSVKGRFTISADTSKNTAYLQMNSLRAEDTAVYYCARTYGIYDLYVDYTEYVMDYWGQGTLVTVSS
VL: DIQMTQSPSSLSASVGDRVTITCRASQDVDTSLAWYKQKPGKAPKLLIYSASFLYSGVPSRFSGSGSGTDFTLTISSLQPEDFATYYCQQSTGHPQTFGQGTKVEIKR
B20: 2B.1.14 (antibody, human IgG1, kappa, V domains shown)
VH: EVQLVESGGGLVQPGGSLRLSCAASGFTFTSTGISWVRQAPGKGLEWVGRLWYFDGSTNYADSVKGRFTISADTSKNTAYLQMNSLRAEDTAVYYCARTYGIYDLYVDYTEYVMDYWGQGTLVTVSS
VL: DIQMTQSPSSLSASVGDRVTITCRASQDVDTSLAWYKQKPGKAPKLLIYSASFLYSGVPSRFSGSGSGTDFTLTISSLQPEDFATYYCQQSTGHPQTFGQGTKVEIKR
B21: 2B.1.50 (antibody, human IgG1, kappa, V domains shown)
VH: EVQLVESGGGLVQPGGSLRLSCAASGFTFTSTGISWVRQAPGKGLEWVGRLNFYSGSTNYADSVKGRFTISADTSKNTAYLQMNSLRAEDTAVYYCARTYGIYDLYVDYTEYVMDYWGQGTLVTVSS
VL: DIQMTQSPSSLSASVGDRVTITCRASQDVDTSLAWYKQKPGKAPKLLIYSASFLYSGVPSRFSGSGSGTDFTLTISSLQPEDFATYYCQQSTGHPQTFGQGTKVEIKR

Data on 21 molecules can be found in patent US20160244525A1.

For the test, the target named is FGFR2-IIIb (human) (UniProt P21802). As to the kind of experiment: SPR (Biacore T100), IgG captured by anti-human Fc, FGFR flowed. Background: SPR reads the build-up and loss of mass on a sensor chip optically.
Sequence of FGFR2-IIIb (human) (P21802 other isoform, or with tags, fused parts or gaps limits assumed): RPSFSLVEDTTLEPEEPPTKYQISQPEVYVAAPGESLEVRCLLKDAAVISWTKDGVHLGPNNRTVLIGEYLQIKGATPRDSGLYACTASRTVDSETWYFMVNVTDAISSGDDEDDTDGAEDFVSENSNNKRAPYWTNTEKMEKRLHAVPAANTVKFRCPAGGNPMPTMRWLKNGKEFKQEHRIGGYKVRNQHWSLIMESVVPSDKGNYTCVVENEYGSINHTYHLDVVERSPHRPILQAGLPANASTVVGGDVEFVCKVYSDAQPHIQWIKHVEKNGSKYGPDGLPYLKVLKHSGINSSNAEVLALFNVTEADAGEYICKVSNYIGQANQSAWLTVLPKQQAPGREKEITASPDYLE
As usually defined, the Kd is the equilibrium constant for the complex coming apart. Regarding B1, the Kd worked out at 1.4 nM.
On to B2, for which the equilibrium dissociation constant (Kd) was found to be 2.1 nM. This Kd lies about 1.5-fold higher than the previous one.
For B3 the value was 2.3 nM.
Take B4: the dissociation constant Kd is 3.9 nM.
With B5, the dissociation constant (Kd) turned out to be 1.1 nM.
For the molecule B6, the Kd stood at 3.5 nM.
For B7 the value was 4.9 nM; for B8, 5.9 nM; for B9, 2.7 nM.
For B10 the value was 1.6 nM.
As to B11, the dissociation constant (Kd) turned out to be 4.1 nM.
For B12 the value was 9.4 nM.
B13: the equilibrium dissociation constant (Kd) came to 17 nM.
Under B14 stands 1.8 nM.
For B15 the value was 3.1 nM.
Under B16 stands 15 nM; under B17, 5.1 nM; under B18, 3.2 nM.
B19 had a Kd of 3.6 nM.
Under B20 stands 1.6 nM.
For B21 the value was 2 nM.
